The record followed here is the supplement of paper PMC9112550, “Optimization of the antimicrobial peptide Bac7 by deep mutational scanning” (BMC Biology, 2022).

The data set relates to Escherichia coli TOP10. Put plainly: shrunken log2 fold change of peptide-encoding DNA abundance (4.5 h post-induction vs induction); higher = less antimicrobial activity (less host growth inhibition). The note with it: time post-induction: 4.5 h; library: site-saturation at positions 5, 18, 19, 20.
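Note: peptides expressed intracellularly from a pBAD plasmid library in pooled LB shake-flask culture, induced with 0.3% L-arabinose, DNA abundance read by NGS, three biological replicates, DESeq2 with apeglm shrinkage.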

As for RRIRYRPPRLPRPRPRPEDAPRP, the “shrunken log2 fold change” value was -0.0333.

As to RRIRWRPPRLPRPRPRPGWHPRP, the “shrunken log2 fold change” value is 0.298. As for RRIRIRPPRLPRPRPRPVDDPRP, the “shrunken log2 fold change” value is -0.0762. With RRIRKRPPRLPRPRPRPLLRPRP the figure was 0.477; with RRIRQRPPRLPRPRPRPFFVPRP, -0.0254; with RRIRARPPRLPRPRPRPKHEPRP, 0.529. With RRIRSRPPRLPRPRPRPFNMPRP the figure was -0.907; with RRIRCRPPRLPRPRPRPKDGPRP, 0.408. Then RRIRARPPRLPRPRPRPAPMPRP, with 0.799. With RRIRTRPPRLPRPRPRPFAKPRP, the “shrunken log2 fold change” value was -0.0867. With RRIRWRPPRLPRPRPRPFSNPRP the figure was -0.258; with RRIRNRPPRLPRPRPRPLPCPRP, -0.207. With RRIRSRPPRLPRPRPRPWWWPRP the figure was 0.0716; with RRIRRRPPRLPRPRPRPPEKPRP, 1.6; with RRIRMRPPRLPRPRPRPQFAPRP, 0.0822. On to RRIRFRPPRLPRPRPRPALFPRP, for which the “shrunken log2 fold change” value turned out to be 0.173. For the sequence RRIRIRPPRLPRPRPRPHFTPRP, the “shrunken log2 fold change” value is -0.0792. With RRIRNRPPRLPRPRPRPGACPRP the figure was 0.0367; with RRIRQRPPRLPRPRPRPMQWPRP, 0.0039; with RRIRDRPPRLPRPRPRPWSIPRP, -0.105. Take RRIRYRPPRLPRPRPRPPGRPRP: the “shrunken log2 fold change” value was 0.643. Take RRIRCRPPRLPRPRPRPKHAPRP: the “shrunken log2 fold change” value stood at 0.302. Then RRIRVRPPRLPRPRPRPGIQPRP, with 0.0729; and RRIRWRPPRLPRPRPRPEWCPRP, with 0.386; and RRIRTRPPRLPRPRPRPPAAPRP, with 0.353. With RRIRARPPRLPRPRPRPGKHPRP, the “shrunken log2 fold change” value worked out at 0.089. Then RRIRPRPPRLPRPRPRPRVWPRP, with 0.482; and RRIRVRPPRLPRPRPRPYFKPRP, with -0.49. Then RRIRKRPPRLPRPRPRPMWVPRP, with -0.232. As for RRIRFRPPRLPRPRPRPNPFPRP, the “shrunken log2 fold change” value was 0.0605.

In the case of RRIRRRPPRLPRPRPRPTMGPRP, the “shrunken log2 fold change” value was 0.0489.

On to RRIRQRPPRLPRPRPRPVQCPRP, for which the “shrunken log2 fold change” value was -0.16.

On to RRIRERPPRLPRPRPRPRRVPRP, for which the “shrunken log2 fold change” value was determined as 0.447. With RRIRMRPPRLPRPRPRPLSKPRP the figure was -0.103.

With RRIRIRPPRLPRPRPRPCKSPRP, the “shrunken log2 fold change” value was -0.133. With RRIRIRPPRLPRPRPRPKRGPRP the figure was 0.2. With RRIRWRPPRLPRPRPRPKCRPRP, the “shrunken log2 fold change” value came to 0.294.

For RRIRERPPRLPRPRPRPWSVPRP, the “shrunken log2 fold change” value was -0.113. With RRIRHRPPRLPRPRPRPHNCPRP the figure was -0.0289; with RRIRDRPPRLPRPRPRPEPCPRP, 0.064. With RRIRWRPPRLPRPRPRPSQTPRP the figure was 0.657; with RRIRPRPPRLPRPRPRPNQSPRP, -0.247. Turning to RRIRVRPPRLPRPRPRPMPCPRP, the “shrunken log2 fold change” value was 0.118. With RRIRWRPPRLPRPRPRPKPAPRP the figure was 0.605. For RRIRDRPPRLPRPRPRPRMYPRP, the “shrunken log2 fold change” value is -0.154. Then RRIRYRPPRLPRPRPRPLETPRP, with -0.0196. For the sequence RRIRKRPPRLPRPRPRPCLMPRP, the “shrunken log2 fold change” value was -0.0503. For the sequence RRIRHRPPRLPRPRPRPRRMPRP, the “shrunken log2 fold change” value stood at 0.254. With RRIRYRPPRLPRPRPRPNRVPRP the figure was -0.172; with RRIRFRPPRLPRPRPRPYMCPRP, -0.0146; with RRIRKRPPRLPRPRPRPHVVPRP, -0.183.

As for RRIRFRPPRLPRPRPRPAVEPRP, the “shrunken log2 fold change” value was determined as 0.509.

With RRIRIRPPRLPRPRPRPFTGPRP, the “shrunken log2 fold change” value was -1.27. With RRIRQRPPRLPRPRPRPWNRPRP, the “shrunken log2 fold change” value came to 0.013.

In the case of RRIRQRPPRLPRPRPRPKQIPRP, the “shrunken log2 fold change” value is -0.103. Then RRIRQRPPRLPRPRPRPTFLPRP, with -0.358; and RRIRFRPPRLPRPRPRPKQKPRP, with -0.00156; and RRIRERPPRLPRPRPRPRCEPRP, with 0.0736.

Regarding RRIRARPPRLPRPRPRPYCQPRP, the “shrunken log2 fold change” value was -0.138.

With RRIRQRPPRLPRPRPRPFNFPRP, the “shrunken log2 fold change” value was -0.16. With RRIRMRPPRLPRPRPRPQMLPRP the figure was 0.186; with RRIRLRPPRLPRPRPRPIMKPRP, -0.489; with RRIRIRPPRLPRPRPRPERAPRP, 0.761. As to RRIRTRPPRLPRPRPRPKNSPRP, the “shrunken log2 fold change” value is -0.438. Then RRIRQRPPRLPRPRPRPLMDPRP, with 0.0125; and RRIRHRPPRLPRPRPRPDHIPRP, with -0.336. With RRIRSRPPRLPRPRPRPTDYPRP, the “shrunken log2 fold change” value is -0.66. With RRIRCRPPRLPRPRPRPCTKPRP the figure was -0.507.

With RRIRHRPPRLPRPRPRPYVNPRP, the “shrunken log2 fold change” value was -0.0772. With RRIRHRPPRLPRPRPRPKFKPRP, the “shrunken log2 fold change” value was determined as 0.0646. With RRIRCRPPRLPRPRPRPGDNPRP the figure was -0.125.

For the sequence RRIRQRPPRLPRPRPRPTYGPRP, the “shrunken log2 fold change” value was -0.293. As to RRIRVRPPRLPRPRPRPEYCPRP, the “shrunken log2 fold change” value was -0.154. For RRIRERPPRLPRPRPRPPDAPRP, the “shrunken log2 fold change” value was 0.142. With RRIRKRPPRLPRPRPRPQSYPRP the figure was 0.04; with RRIRARPPRLPRPRPRPGDPPRP, 0.971; with RRIRWRPPRLPRPRPRPISFPRP, 0.00901. As for RRIRWRPPRLPRPRPRPGWDPRP, the “shrunken log2 fold change” value was determined as 0.657. With RRIRARPPRLPRPRPRPKMNPRP the figure was 0.0254. With RRIRKRPPRLPRPRPRPIHQPRP the figure was -0.0102; with RRIRVRPPRLPRPRPRPCTKPRP, -0.275.

Take RRIRLRPPRLPRPRPRPPQVPRP: the “shrunken log2 fold change” value came to 0.162. As for RRIRHRPPRLPRPRPRPRPNPRP, the “shrunken log2 fold change” value is 0.321. Then RRIRTRPPRLPRPRPRPLNGPRP, with -0.235; and RRIRMRPPRLPRPRPRPYPVPRP, with -0.237. With RRIRSRPPRLPRPRPRPHRWPRP the figure was 0.0724; with RRIRLRPPRLPRPRPRPSLCPRP, -0.462. With RRIRVRPPRLPRPRPRPAFWPRP the figure was 2.56; with RRIRYRPPRLPRPRPRPEQFPRP, -0.14; with RRIRERPPRLPRPRPRPQGLPRP, -0.141. On to RRIRIRPPRLPRPRPRPDVAPRP, for which the “shrunken log2 fold change” value was -0.206. Consider RRIRNRPPRLPRPRPRPVLIPRP, for which the “shrunken log2 fold change” value was -0.27. As to RRIRRRPPRLPRPRPRPSGWPRP, the “shrunken log2 fold change” value is 0.333. Then RRIRGRPPRLPRPRPRPMWPPRP, with 1.07; and RRIRYRPPRLPRPRPRPRGHPRP, with -0.117; and RRIRPRPPRLPRPRPRPHFPPRP, with -0.204. Then RRIRYRPPRLPRPRPRPTKYPRP, with -0.836. With RRIRSRPPRLPRPRPRPEATPRP the figure was 0.72; with RRIRYRPPRLPRPRPRPYMPPRP, -0.00804. As for RRIRQRPPRLPRPRPRPIWVPRP, the “shrunken log2 fold change” value was -0.344. With RRIRCRPPRLPRPRPRPQEWPRP the figure was 0.00898; with RRIRMRPPRLPRPRPRPQVYPRP, 0.0985; with RRIRPRPPRLPRPRPRPLMLPRP, -0.21. With RRIRGRPPRLPRPRPRPFRHPRP the figure was 0.0102.

With RRIRQRPPRLPRPRPRPMVLPRP, the “shrunken log2 fold change” value is 0.0309. Then RRIRGRPPRLPRPRPRPSADPRP, with 1.91; and RRIRFRPPRLPRPRPRPAWFPRP, with 0.122. With RRIRARPPRLPRPRPRPFHQPRP, the “shrunken log2 fold change” value was -0.211. As to RRIRIRPPRLPRPRPRPEEYPRP, the “shrunken log2 fold change” value was -0.0228. With RRIRHRPPRLPRPRPRPTYRPRP the figure was -0.0234; with RRIRERPPRLPRPRPRPWAYPRP, -0.552. For RRIRARPPRLPRPRPRPDCAPRP, the “shrunken log2 fold change” value was found to be 0.826. With RRIRVRPPRLPRPRPRPQCWPRP the figure was 0.198; with RRIRWRPPRLPRPRPRPALPPRP, 0.374; with RRIRKRPPRLPRPRPRPRQEPRP, 0.461. Then RRIRFRPPRLPRPRPRPIHIPRP, with -0.022; and RRIRFRPPRLPRPRPRPYNRPRP, with -0.262; and RRIRKRPPRLPRPRPRPQLCPRP, with 0.129.

As for RRIRRRPPRLPRPRPRPQHGPRP, the “shrunken log2 fold change” value stood at 0.198. Then RRIRCRPPRLPRPRPRPLFLPRP, with -0.601; and RRIRERPPRLPRPRPRPVMRPRP, with 0.453; and RRIRYRPPRLPRPRPRPHMGPRP, with 3.73. With RRIRPRPPRLPRPRPRPCGQPRP the figure was 0.311; with RRIRMRPPRLPRPRPRPKLDPRP, 1.7. Then RRIRTRPPRLPRPRPRPCVIPRP, with -0.029.
